Measurements from patent US9623039B2, “Treatment and prevention of pathological conditions using iduna related techniques and compositions” (VALTED, LLC, priority 2010, dated 2017).

System: primary cortical neurons
Experiment: Mitochondrial membrane potential (TMRM live imaging)
Assay type: cell-based, mouse
Conditions: TMRM fluorescence, NMDA 500 μM
Protocol: Mitochondrial Membrane Potential (Δψm): TMRM was used to determine Δψm. Mouse neuronal cultures were loaded with TMRM (100 nM) for 20 min. Thereafter, live-cell imaging was captured using LSM 510 Live Confocal microscope (Carl Zeiss, Germany) for 20 minutes and fluorescence values for TMRM were calculated using LSM 510 confocal software (Carl Zeiss). Following 50-100 seconds base-line stabilization, NMDA (500 μM for 5 min) was directly perfused during image acquisition on the confocal microscopic stage using a peristaltic pump (Gilson). Live images were acquired at an interval of 20 s using a low laser power to avoid excessive bleaching. Due to spectral overlap with GFP, plasma membrane potential could not be determined.

B1: Iduna: novel NMDA-induced cell survival protein, PAR-dependent E3 ligase; 359 amino acids (protein)
chain: MEMAGCGEIDHSINMLPTNKKANESCSNTAPSLTVPECAICLQTCVHPVSLPCKHVFCYLCVKGASWLGKRCALCRQEIPEDFLDKPTLLSPEELKAASRGNGEYAWYYEGRNGWWQYDERTSRELEDAFSKGKKNTEMLIAGFLYVADLENMVQYRRNEHGRRRKIKRDIIDIPKKGVAGLRLDCDTNTVNLARESSADGADSGSAQTGASVQLAVPSSTRPLTSVDGQLTSPVTPSPDAGISLEDSFAHLQLSGDSIAERSHRGEGEEDHESPSSGRVPDTSVEETESDASSDSEDAPVVVAQHSLTQQRPLVPNGNQTVADQSDRSGTDRSVAGGGTMSVNVRSRRPDGQCTVIEV
- NMDA induced loss of Δψm: prevents NMDA induced loss of Δψm
